Test results as given in publication PMC8473560, “Molecular basis of C-S bond cleavage in the glycyl radical enzyme isethionate sulfite-lyase” (Cell Chemical Biology, 2021).

Tests used:
[1] = target: T1, IslA (isethionate sulfite-lyase) (Bilophila wadsworthia, UniProt E5Y378); test: X-ray crystal structure, […] Å; format: binding; conditions: unactivated enzyme, aerobic, 30 mM sodium isethionate, pH 7.5, 22 °C; active site
T1 construct: full length, 830 residues, N-terminal His-tag kept (pET-28a), expressed in E. coli BL21(DE3); homodimer

O=S(=O)(O)CCO [2] = test: purified protein; conditions: IslA activated by IslB and S-adenosylmethionine, anoxic, 30 °C, isethionate 1-50 mM, kcat not normalized to glycyl radical content
O=S(=O)(O)CCO [3] = test: purified protein; format: biochemical, Bilophila wadsworthia; conditions: IslA activated by IslB and S-adenosylmethionine, anoxic, 30 °C, isethionate 1-50 mM, kcat not normalized to glycyl radical content
[4] = target: the molecule itself; test: crystal structure; hanging drop vapor diffusion at 22°C, aerobic; unactivated IslA with intact N-terminal His-tag, 7.5 mg/mL in 50 mM HEPES pH 7.5, 50 mM NaCl; glycerol-bound (2.26 Å, P21212) and isethionate-bound (2.70 Å, P212121) crystal forms

Molecule | Km (O=S(=O)(O)CCO [3]) [mM] | kcat (O=S(=O)(O)CCO [3]) [s⁻¹] | further results
O=S(=O)(O)CCO [isethionate, 2-hydroxyethanesulfonate] | – | – | X-ray crystal structure, 2.70 Å [1]: a second IslA structure with the substrate Ise bound was obtained
IslA (isethionate sulfite-lyase) (Bilophila wadsworthia 3_1_6) | – | – | Km (O=S(=O)(O)CCO [2]): 8 ± 2 mM
IslA (isethionate sulfite-lyase) (Bilophila wadsworthia 3_1_6; F682A) | 6.8 ± 0.6 | 0.0171 ± 0.0004 | –
IslA (isethionate sulfite-lyase) (Bilophila wadsworthia 3_1_6; F682Y) | 8 ± 1 | 0.0074 ± 0.0003 | –
IslA (isethionate sulfite-lyase) (Bilophila wadsworthia 3_1_6; I192A) | 12 ± 2 | 0.4 ± 0.02 | –
IslA (isethionate sulfite-lyase) (Bilophila wadsworthia 3_1_6; W374F) | 11 ± 1 | 0.063 ± 0.003 | –
IslA (isethionate sulfite-lyase) (Bilophila wadsworthia 3_1_6; W374Y) | 16.0 ± 0.9 | 0.14 ± 0.003 | –
isethionate sulfite-lyase (IslA) from Bilophila wadsworthia 3.1.6 (enzyme, Isethionate sulfite-lyase IslA, Bilophila wadsworthia 3.1.6, wild type; expressed from pET-28a-IslA (Peck et al., 2019); It calls the structure native/wild-type and gives '6-830 (of 830 residues)', so the whole protein is likely, but the words 'full length' are not used; also called IsIA; wild-type IslA; source: E. coli BL21(DE3), purified (Ni-NTA, dialysis); not shown: His-tag, N-terminal, kept) MTQVAEIKSPHEQRLEDNIAGKEDIYRESHKRVFKLLERFDGQKPAIDVERALYFTQSMAETVGQPLVLRWAKALMNVAKNITVMVQDDQLLLGRCGGHDGRYGILYPELDGDFLDIAVRDLPTRPQSPASISPEDAKIVVEQIAPFWKGRTYHEALNKALPAEVHKLTYDDPDGLISRFIVNETSSFRSSIQWVHDYEVVLKRGFNGLKQEMEEKLAALDPASPVDQVDKRPFIEATILVCDAIVLWAKRHADAARKAAEACADPVRKAELIRMAENAEHVPANPARDFYEAVQSQYFTQMFSRLEQKTGTTISNGRMDQYFYPFYKKDMEAGILTDEKTLEYLECMWVGMAEFIDMYISPAGGAFNEGYAHWEAVTIGGQTPDGRDATNDLTYLFLKSKREFPLHYPDLAARIHSRAPERYLWDVAETIKFGSGFPKLCNDEECIPLYVSKGATFEEALDYAVSGCIEIRMPNRDTYTSGGAYTNFASAVEMALYDGKMKKYGDVQLGIQTGDARKFKSWDEFWNAYVQQHMLLLRTTFIQQYIVIQTRAKHFAQPMGSVLHALCRKHCIDLHQPQIPEGLNFGYFEFMGLGTVIDSLAAIKKLVFEDKKLTMDQLIDALEANFEGYEDIQQLLRTAPCYGNDDEYADEIGRELDRMAVSFAAKYGKEMGINNDARYVPFTSHVPFGKVVSATPNGRVAWFPLADGSSPSHGADHNGPTAILLSNHNTKNYGMRARAARLINVKFTPKCVEGDAGTEKLVQFIRTWCDLKLWHIQFNVINADTLKKAQKDPQKYRNLIVRIAGYSAYFVDLTPDLQNDLIARTGHDQM | – | – | stoichiometry N [4]: 2
